Consider 1 molecule from US20220332818A1 (AstraZeneca / MedImmune, published 2022).

The target in this experiment is T1, TIM-3 IgV domain (human) (human, UniProt Q8TDQ0 22-130).
T1 construct: also called IgV domain of TIM-3; human TIM-3 IgV
T1 sequence: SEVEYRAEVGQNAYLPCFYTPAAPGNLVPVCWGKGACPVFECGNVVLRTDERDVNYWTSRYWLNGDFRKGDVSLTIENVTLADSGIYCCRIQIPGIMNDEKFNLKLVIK
The experiment can be described thus: co-crystal X-ray structure.

Experimental: To obtain the co-crystal structure of the TIM-3 IgV domain with antigen-binding fragments (Fabs), all proteins were expressed in mammalian cells and purified to homogeneity. Purified TIM-3 IgV domain and Fabs (one at a time) were incubated at a slight excess of IgV domain, followed by size exclusion purification of the complex. Crystallization of the complexes was performed at room temperature. The X-ray diffraction data was collected at the Stanford Synchrotron Radiation Lightsource (SSRL, Menlo Park, Calif., USA). Structures of the complexes were solved by molecular replacement.

B1: Fab of anti-TIM3 antibody #62 (Fab, V domains shown)
VH: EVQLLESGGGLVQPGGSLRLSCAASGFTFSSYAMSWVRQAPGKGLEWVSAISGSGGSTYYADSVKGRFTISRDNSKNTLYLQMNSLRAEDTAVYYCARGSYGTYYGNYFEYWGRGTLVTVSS
VL: QTVLTQPPSVSVAPGKTASISCGGDNIGGKSVHWYQQKPGQAPVLVIYYDSDRPSGIPQRFSGSNSGNTATLTIHRVEAGDEADYYCQVLDRRSDHWLFGGGTKLTVL
notes: Fab expressed in mammalian cells for co-crystallisation; also called clone 62
Consider B1, for which the binding result was “binds”.
